In this experiment the test system is PPO-deficient BT3 E. coli (ΔPPO). In words: PPO-inhibiting herbicide tolerance test of PPO variants in E. coli (growth on herbicide-containing LB agar). The class given is cell-based. The note with it: CyPPO19 variants in BT3 (ΔPPO) E. coli; LB agar with 0 to 2,000 μM herbicide, 37° C., dark, 16-20 hours. An outline of the steps: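 Tolerance was scored against wild-type enzyme: '−' for equal growth, one '+' per 10-fold gain, up to '+++++'. ΔPPO BT3 cells carrying variant plasmids, spotted as a 10-fold dilution series from OD600=0.5, grew 16-20 h at 37° C. in the dark on ampicillin LB agar containing 0 to 2,000 μM herbicide.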

B1: CyPPO19 V165C + L327T + F360V: variant of CyPPO19 PPO protein (SEQ ID NO: 1) (protein)
chain: MSEVDVAIVGGGLSGLSLAWRLQQSAPQYSVVLLEASDRLGGNITTQTAEGFVWELGPNSFAPTPALLQLIAEVGLQSELIRGDRHLPRYIYWRGQLYPLQPTRPLALATSNLLSPWGKVRAALGALGFVPPYLGSGDESVNSFFRRHLGQEVAERLVAPFVSGCYAGDPQQLSAAAAFRRIAQLEKLGGGLIAGALHLRRQQAPKPKPPTSVQMRPGELGSFKEGLAALPRAIAQQLKAPIHLQTPVQEITPDPKGGYLLRSGEQTWRARSVVLATPAYQTAELVAPFQPAIARVLATIPYPTVACVVLAYPAGLGRSVRPGFGVTIPRSQGIRTLGTIWSSCLFPQRTPAGWQVFTSVIGGATDPDLASLSEEAIVQQVQQDLNRLLDLPAAKARLLGMKVWRRAIPQYMVGYPEQWQQVTHALSQTPGLFLCSNYAEGVALGDRVEHGNRTAAAVAAYLSGGQP
modifications: Synthetic_PPO of Thermosynechococcus elongatus PKUAC-SCTE542 (comprising GenBank No. CP032152.1)
In the case of B1, the “tolerance level relative to wild type, Carfentrazone” value is reported as “+ (‘+’ per each 10-fold resistance)”; the “tolerance level relative to wild type, Flumioxazin” value is “+++++ (until ‘+++++’ as maximal resistance)”; the “tolerance level relative to wild type, Fomesafen” value was “+ (‘+’ per each 10-fold resistance)”; the “tolerance level relative to wild type, Oxyfluorfen” value is “+++ (‘+’ per each 10-fold resistance)”. Besides, the “tolerance level relative to wild type, Saflufenacil” value is recorded as “++++ (‘+’ per each 10-fold resistance)”; the “tolerance level relative to wild type, Sulfentrazone” value is “+++++ (until ‘+++++’ as maximal resistance)”; the “tolerance level relative to wild type, Tiafenacil” value is on record as “+++++ (until ‘+++++’ as maximal resistance)”.

B2: CyPPO19 V165S + L327T + F360T: variant of CyPPO19 PPO protein (SEQ ID NO: 1) (protein)
chain: MSEVDVAIVGGGLSGLSLAWRLQQSAPQYSVVLLEASDRLGGNITTQTAEGFVWELGPNSFAPTPALLQLIAEVGLQSELIRGDRHLPRYIYWRGQLYPLQPTRPLALATSNLLSPWGKVRAALGALGFVPPYLGSGDESVNSFFRRHLGQEVAERLVAPFVSGSYAGDPQQLSAAAAFRRIAQLEKLGGGLIAGALHLRRQQAPKPKPPTSVQMRPGELGSFKEGLAALPRAIAQQLKAPIHLQTPVQEITPDPKGGYLLRSGEQTWRARSVVLATPAYQTAELVAPFQPAIARVLATIPYPTVACVVLAYPAGLGRSVRPGFGVTIPRSQGIRTLGTIWSSCLFPQRTPAGWQVFTSTIGGATDPDLASLSEEAIVQQVQQDLNRLLDLPAAKARLLGMKVWRRAIPQYMVGYPEQWQQVTHALSQTPGLFLCSNYAEGVALGDRVEHGNRTAAAVAAYLSGGQP
modifications: Synthetic_PPO of Thermosynechococcus elongatus PKUAC-SCTE542 (comprising GenBank No. CP032152.1)
Turning to B2, the “tolerance level relative to wild type, Carfentrazone” value is “+ (‘+’ per each 10-fold resistance)”; the “tolerance level relative to wild type, Flumioxazin” value is “+++++ (until ‘+++++’ as maximal resistance)”; the “tolerance level relative to wild type, Fomesafen” value is “+++ (‘+’ per each 10-fold resistance)”; the “tolerance level relative to wild type, Oxyfluorfen” value was “++ (‘+’ per each 10-fold resistance)”. In addition, the “tolerance level relative to wild type, Saflufenacil” value was “++++ (‘+’ per each 10-fold resistance)”; the “tolerance level relative to wild type, Sulfentrazone” value is reported as “+++ (‘+’ per each 10-fold resistance)”; the “tolerance level relative to wild type, Tiafenacil” value is on record as “++++ (‘+’ per each 10-fold resistance)”.

For the origin of these results see patent US12698507B2, “Methods and compositions for conferring and/or enhancing herbicide tolerance using protoporphyrinogen IX oxidase of various cyanobacteria or variant thereof” (FarmHannong Co., Ltd., priority 2019, dated 2026).
